A short description of data set [1]: Isothermal titration calorimetry (ITC) demicellization of beta-casein micellar solution. In kind it is physicochemical. The method, then: (§1) • Cryo-TEM: Specimens were prepared in the controlled environment vitrification system (CEVS) (Bellare et al. Electron Microsc. Technique, 1988, 10; 87-111) at 24° C. and 100% relative humidity to avoid loss of volatiles. First, the solutions were incubated in the CEVS at the desired temperature for 1 h. Then, a 7 μL drop of each solution was placed on a TEM copper grid covered with a perforated carbon film (Pelco International) and blotted with filter paper to form a thin liquid film of the sample (100-200 nm thick). The thinned sample was plunged into liquid ethane at its freezing temperature (−183° C.) to form a vitrified specimen and then transferred to liquid nitrogen ([…]) for storage. The vitrified specimens were examined in a Philips CM120 transmission electron microscope operating at an accelerating voltage of 120 kV. We used an Oxford CT3500 (Oxford Instruments) cryoholder that maintained the specimens below −175° C. during sample transfer and observation. Images were recorded digitally on a cooled Gatan MultiScan 791 CCD camera using DigitalMicrograph 3.1 software (Gatan) in the low-dose imaging mode to minimize beam exposure and electron-beam radiation damage. • ITC: ITC measurements were performed with a VP-ITC calorimeter (MicroCal) at a temperature of 24° C. The reaction cell (V=1.43 mL) was filled with degassed solvent (lactic acid at pH 2.6, or phosphate buffer at pH 7.0). The injector-stirrer syringe (289 μL) was loaded with a beta-casein micellar solution (20 mg/mL). The micellar solution was injected into the reaction cell in 28 steps of 10 μL aliquots each, and the heat flow was measured. During the titration, the stirring speed was 310 rpm. The duration of each injection was 20 s, and the equilibration time between consecutive injections was 3 min. Such an interval was sufficient to equilibrate the reaction cell after every injection. Each experiment was performed at least three times. Calorimetric data analysis was carried out using Origin 5.0 software (MicroCal). • Analytical Ultracentrifugation: Sedimentation equilibrium experiments were performed at 24° C. using a Beckman Optima XL-A (Palo Alto, Calif.) analytical centrifuge at 6000, 10000, and 12000 rpm for the low-pH solutions and at 4000, 6000, and 8000 rpm for the pH 7.0 solutions. Data were collected at 280 nm. The beta-casein solutions were studied at concentrations ranging from 0.2 to 10.0 mg/mL at pH 2.6 and from 0.2 to 2 mg/mL at pH 7.0 and an ionic strength of 0.1. […] The average apparent molecular weight of the micelles at the various protein concentrations was calculated following methods well known in the art (The partial specific volume vj of the solute was taken to be 0.742 cm3/g3, and a solution density F of 1.0044 g/cm3 was measured). At beta-casein concentrations of 2 mg/mL and above under low pH conditions, the plot of the natural logarithm of the measured absorbance versus the square of the radius from the axis of rotation was not linear. To estimate Nagg, the limiting slope toward the outer edge of the sample cell was used to provide dln(c)/dr^2. The molecular weight calculated using this slope was divided by the monomer molecular weight calculated from the beta-casein amino acid sequence (24000).
• Characterization of the beta-casein micelles by ITC: beta-casein micellar solution was titrated into lactic acid buffer (pH 2.6) placed in the ITC cell, and the heat flow was measured as a function of time (FIG. 6A). Three factors contribute to the exothermic enthalpy changes observed at the initial injections: micelle dilution, demicellization, and dilution of individual beta-casein molecules. The enthalpy changes decrease in magnitude as more protein is added and the concentration in the ITC cell increases. Eventually, the concentration in the cell exceeds the CMC and only micelle dilution contributes to the heat flow. […]
On the technique in general: ITC needs no label: the signal is the heat of the interaction.

Data set [2] in a line: Dynamic light scattering (DLS) particle size. In kind it is physicochemical. The settings on record: pH 2.6, pure beta-casein, FIG. 12. The method, then:
The pure beta-casein micelles remain small, below 80 nm, consistent with the fact the solution remains transparent.
The particle size distribution and the turbidity of a vitamin D loaded beta-casein micellar solutions at pH 7.0 and pH 2.5 as a function of beta-casein concentration are shown in FIGS. 15 and 16 respectively. Vitamin D concentration in this experiment was kept constant (82.5 μg/ml; 0.2 mM) and the beta-casein concentration was raised gradually from 0 to 2% by weight (0 to 0.8 mM). […] This value is relatively low and the solutions looked transparent to the human eye.

The nature of data set [3]: Cryo-TEM of beta-casein micelles and vitamin D loaded assemblies. In kind it is physicochemical. Here is the method: as §1
• Characterization of the beta-casein micelles by cryo-TEM: The structural characteristics of the micelles in the two pH environments were studied by cryo-TEM and SAXS. Cryo-TEM was used to determine the shape of the micelles and to estimate their dimensions between 4 and 40° C. This information was further used to accurately calculate by SAXS the micelles' dimensions and to study how the size and shape are affected by temperature. SAXS measurements also provided the critical micelle concentration (CMC) and the micelle aggregation numbers as a function of temperature. […]

For data set [4] the following is noted: depending on temperature, pH, solvent composition and ionic strength (Portnaya 2006); cited from earlier work.
The mark [5] stands for this setting: lactic acid solution pH 2.6, 4-40 °C.

Marks after values point to notes of the source that are not given here.

B1: beta-casein: lyophilized bovine beta-casein (~24 kDa milk protein) self-assembled into nano-sized micelles at low or neutral pH (protein, UniProt P02666 16-224, looked up)
Beta-casein: RELEELNVPGEIVESLSSSEESITRINKKIEKFQSEEQQQTEDELQDKIHPFAQTQSLVYPFPGPIPNSLPQNIPPLTQTPVVVPPFLQPEVMGVSKVKEAMAPKHKEMPFPKYPVEPFTESQSLTLTDVENLHLPLPLLQSWMHQPHQPLPPTVMFPPQSVLSLSQSKVLPVPQKAVPYPQRDMPIQAFLLYQEPVLGPVRGPFPIIV
For the molecule B1, the “heat of demicellization, ΔHdemic” value in data set [1] (pH 2.6, 24 °C) is about -4.28 kcal/mol; in data set [1] (pH 7.0 and IS of 0.1), -9.687 kcal/mol. In addition, the CMC was 1.89 mg/mL in data set [1] (pH 2.6, 24 °C, ITC); 0.19* wt % in data set [1] (pH 2.6, 25 °C row of table, found by ITC (footnote *)); 0.079 mM in data set [1] (pH 2.6, ITC). In addition, the “relative micellization cooperativity (MR)” value in data set [1] (pH 2.6, IS 0.002, 24 °C) is recorded as 0.14 mM. Also, the “mean size of the assemblies” value in data set [2] is reported as “below 80 nm”. The micelle shape entry is listed as “Flat micelles” in data set [3] (20 mg/mL, pH 6.7, 0.05M NaCl, 4 °C and 10 °C); “oblate micelles” in data set [3] (20 mg/mL, pH 6.7, 0.05M NaCl, 16, 25 and 40 °C); “Relatively spheroidal micelles” in data set [3] (20 mg/mL, pH 6.7, 0.05M NaCl, 60 °C); “flat disk-like micelles” in data set [3] (setting [5]). For the same molecule, the “length of elongated surfaces of micelles” value in data set [3] (setting [5]) is reported as 20-25 nm. The micelle thickness in data set [3] (setting [5]) is 3-4 nm. The width of micelles entry in data set [3] (pH 2.6) is listed as “about 3.5 nm”. The “critical micelle concentration (CMC)” value in data set [4] is 0.05-0.2%.

Values taken from US8865222B2, “Beta-casein assemblies for enrichment of food and beverages and methods of preparation thereof” (Technion Research and Development Foundation Ltd., priority 2008, dated 2014).
